Experimental data published in patent US20240409629A1 (CHIA TAI TIANQING PHARMACEUTICAL GROUP, published 2024).
Read-outs that look alike come from different tables or passages of the source.

B1: chimeric antibody xi10D8 (antibody, human IgG1, kappa, V domains shown)
VH: QIQLAQSGPELKKPGETVKVSCKASGYTFKNYGMNWVKQAPGKGLKWMGWININTGEPRYAEEFKGRIAFSLETSASTAYLLINNLKNEDTATYFCARYGYGNSFPYWGQGTLVTVSA
VL: DIVMTQSPSSLTVTVGEKVTMSCKSSQSLLNSGNQRNYLTWYQQKPGQPPKLLIYWASTRESGVPDRFTGSGSGTAFTLTVSSVQAEDLAVYYCQNDYSYPLTFGAGTKLEMKR
notes: Mouse variable regions on human IgG1/kappa; defucosylated, expressed in FUT8-knockout CHO-S cells; also called chimeric 10D8
B2: chimeric antibody xi22F12 (antibody, human IgG1, kappa, V domains shown)
VH: QVQLKESGPGLVAPSQSLSITCTVSGFSLTSYGVYWVRQPPGKGLEWLGVIWAGGSTNYNSALMSRLSINKDNSKSQVFLKMNSLQTDDTAMYYCARDRGRLLSMDYWGQGTSVTVSS
VL: DIVMTQSPSSLSVSAGEKVTMSCRSSQSLLNSGNQKNYLAWYQQKPGQPPKLLIYGASTRESGVPDRFTGSGSGTDFTLTIGSVQAEDLAVYYCQNVHFFPFTFGSGTKLEIKR
notes: Mouse variable regions on human IgG1/kappa; defucosylated, expressed in FUT8-knockout CHO-S cells; also called chimeric 22F12
B3: chimeric antibody xi28G3 (antibody, human IgG1, kappa, V domains shown)
VH: EIQLQQTGPELVKPGASVTISCKTSGYSFTDYLMLWVKQSHGKSLEWIGNINPYYGRTTYNLKFKGKATLTVDRSSSTAYMQLNSLTSEDSAVYYCARDGYSLRNAMDYWGQGTSVTVSS
VL: DIVMTQSPYSLSVSTGEKVTMSCKSSQSLFNSGNQKNYLAWYQQKPGQPPKLLIYGASTRESGVPDRFTGSGSGTDFTLTISSVQAEDLALYYCQNAHSYPYTFGGGTKLEIKR
notes: Mouse variable regions on human IgG1/kappa; defucosylated, expressed in FUT8-knockout CHO-S cells; also called chimeric 28G3

Tests used:
human CLDN18.2 [1] = biological target: T1, human CLDN18.2 (human); experiment: FACS, KATOIII cells (natural CLDN18.2)
T1 construct: also called claudin18.2
Procedure: (§1) Based on the FACS method, the binding activity of anti-CLDN18.2 antibodies for the cell line U2OS-CLDN18.2 overexpressing CLDN18.2 and the cell lines KATOIII (Cell Bank of the Chinese Academy of Sciences) and NUGC-4 (Cell Bank of the Chinese Academy of Sciences) naturally expressing CLDN18.2 was analyzed.
(§2) The cell concentration was adjusted with PBS, and cells (U2OS-CLDN18.2, KATOIII, or NUGC-4 cells) were added to a 96-well plate at 3×10⁵ cells/well, then the test antibodies at different concentrations were added to each well of the 96-well plate, and the mixture was incubated at 4° C. for 60 min. […] The supernatant was discarded, the cells were washed 3 times with pre-cooled PBS buffer, PE-Goat Anti-Human IgG Fcγ (Jackson immunoresearch, Cat. No. 109-116-170) diluted at 1:200 was added at 100 μL/well, and the mixture was incubated at 4° C. for 30 min. Cells were washed 3 times with pre-cooled PBS buffer and resuspended in 100 μL of PBS buffer, and then the fluorescence signals were detected using a flow cytometer (Sartorius, iQUE3). The binding ability of the anti-CLDN18.2 antibodies for CLDN18.2 was measured by mean fluorescence intensity (MFI) of staining.

human CLDN18.2 [2] = biological target: T1, human CLDN18.2; experiment: FACS, NUGC-4 cells (natural CLDN18.2)
Procedure: as §1, §2

human CLDN18.1 [3] = biological target: T2, human CLDN18.1 (human, UniProt P56856 1-261); experiment: FACS, U2OS-CLDN18.1 cells, antibody at 200 nM
T2 construct: also called claudin18.1
Procedure: (§3) Based on the FACS method, the binding activity of anti-CLDN18.2 antibodies for the cell line U2OS-CLDN18.1 overexpressing CLDN18.1 (SEQ ID NO: 2) was analyzed. The cell concentration was adjusted with PBS, and the U2OS-CLDN18.1 cells were added to a 96-well plate at 3×10⁵ cells/well, then the test antibodies were added to each well of the 96-well plate, the final concentration of the antibody was 200 nM, and the mixture was incubated at 4° C. for 60 min. The supernatant was discarded, the cells were washed 3 times with pre-cooled PBS buffer, PE-Goat Anti-Human IgG Fcγ (Jackson immunoresearch, Cat. No. 109-116-170) diluted at 1:200 was added at 100 μL/well, and the mixture was incubated at 4° C. for 30 min. Cells were washed 3 times with pre-cooled PBS buffer and resuspended in 100 μL of PBS buffer, and then the fluorescence signals were detected using a flow cytometer (Sartorius, iQUE3). The nonspecific binding of the anti-CLDN18.2 antibodies for U2OS-CLDN18.1 cells was measured by mean fluorescence intensity (MFI) of staining. The IgG1 isotype control antibody (prepared in-house, with the heavy and light chain amino acid sequences as set forth in SEQ ID NOs: 67 and 68 in the present disclosure) was used as the control, and 2-fold the IgG1 isotype control antibody was used as the benchmark, thus determining the presence or absence of nonspecific binding.

human CLDN18.2 [4] = biological target: T1, human CLDN18.2; experiment: cell-based or functional assay
human CLDN18.1 [5] = biological target: T2, human CLDN18.1; experiment: FACS, U2OS-CLDN18.1 cells; MFI against 2-fold the IgG1 isotype control
Procedure: as §3

human CLDN18.2 [6] = biological target: T1, human CLDN18.2; experiment: FACS, U2OS-CLDN18.2 cells
Procedure: as §1, §2

human CLDN18.2 [7] = biological target: T1, human CLDN18.2; experiment: cell-based or functional assay; remark: listed apart in the source
human CLDN18.2 [8] = biological target: T1, human CLDN18.2; experiment: cell-based or functional assay; remark: listed apart in the source
human CLDN18.2 [9] = biological target: T1, human CLDN18.2; experiment: FACS, NUGC-4 cells (natural CLDN18.2); remark: listed apart in the source
Procedure: (§4) Based on the FACS method, the binding activity of anti-CLDN18.2 humanized antibodies for the cell lines KATOIII (Cell Bank of the Chinese Academy of Sciences) and NUGC-4 (Cell Bank of the Chinese Academy of Sciences) naturally expressing CLDN18.2 was analyzed. […] See Example 3 for the specific method.

human CLDN18.2 [10] = biological target: T1, human CLDN18.2; experiment: FACS, KATOIII cells (natural CLDN18.2); remark: listed apart in the source
Procedure: as §4

human CLDN18.2 [11] = biological target: T1, human CLDN18.2; experiment: cell-based or functional assay; remark: listed apart in the source
human CLDN18.2 [12] = biological target: T1, human CLDN18.2; experiment: cell-based or functional assay; remark: listed apart in the source
human CLDN18.2 [13] = biological target: T1, human CLDN18.2; experiment: cell-based or functional assay; remark: listed apart in the source

Binder	EC50 (human CLDN18.2 [1])	EC50 (human CLDN18.2 [2])	MFI (human CLDN18.1 [3])	CDC EC50, U2OS-CLDN18.2 target cells (human CLDN18.2 [4])	binding result (human CLDN18.1 [5])	EC50 (human CLDN18.2 [6])	ADCC EC50, PBMC effector cells, NUGC-4 target cells (human CLDN18.2 [7])	ADCC Maximum killing (%), PBMC effector cells, NUGC-4 target cells (human CLDN18.2 [7])	CDC EC50, KATOIII target cells (human CLDN18.2 [4])	ADCC EC50, Jurkat-CD16a v158-NFAT-luciferase effector cells, KATOIII target cells (human CLDN18.2 [8])	ADCC EC50, Jurkat-CD16a v158-NFAT-luciferase effector cells, NUGC-4 target cells (human CLDN18.2 [8])	ADCC EC50, Jurkat-CD16a v158-NFAT-luciferase effector cells, U2OS-CLDN18.2 target cells (human CLDN18.2 [8])	other results
B1	13.9 nM	512 nM	8030	11.4 nM	no binding (tested: 200 nM)	19.5 nM	–	–	–	–	–	–	–
B2	3.68 nM	20 nM	8940	2.09 nM	no binding (tested: 200 nM)	25.1 nM	0.68 nM	46.1%	0.103 nM	0.02 nM	0.083 nM	0.02 nM	–
B3	3.31 nM	21.2 nM	7560	1.58 nM	no binding (tested: 200 nM)	7.78 nM	0.44 nM	43.3%	0.112 nM	0.03 nM	0.121 nM	0.028 nM	EC50 (human CLDN18.2 [9]): 44.1 nM; EC50 (human CLDN18.2 [10]): 6.63 nM; CDC EC50, NIH-3T3-CLDN18.2 target cells (human CLDN18.2 [11]): 0.27 nM; ADCC EC50, PBMC effector cells, KATOIII target cells (human CLDN18.2 [7]): 38.4 nM; ADCC Maximum killing (%), PBMC effector cells, KATOIII target cells (human CLDN18.2 [7]): 76.8%; ADCC EC50, PBMC effector cells, KATOIII target cells (human CLDN18.2 [12]): 0.82 nM; ADCC EC50, PBMC effector cells, NIH-3T3-CLDN18.2 target cells (human CLDN18.2 [12]): 0.54 nM; ADCC EC50, PBMC effector cells, NUGC-4 target cells (human CLDN18.2 [12]): 3.26 nM; ADCC Maximum killing (%), PBMC effector cells, KATOIII target cells (human CLDN18.2 [12]): 29.9%; ADCC Maximum killing (%), PBMC effector cells, NIH-3T3-CLDN18.2 target cells (human CLDN18.2 [12]): 47%; ADCC Maximum killing (%), PBMC effector cells, NUGC-4 target cells (human CLDN18.2 [12]): 22.5%; ADCC EC50, Jurkat-CD16a v158-NFAT-luciferase effector cells, KATOIII target cells (human CLDN18.2 [13]): 0.043 nM; ADCC EC50, Jurkat-CD16a v158-NFAT-luciferase effector cells, U2OS-CLDN18.2 target cells (human CLDN18.2 [13]): 0.018 nM
